Results reported in patent US20140161803A1 (IFOM Fondazione Istituo FIRC di Oncologia Molecolare, priority 2011, published 2014).

System: PC-3 cells
Assay: PC3 prostate cancer xenograft tumor growth
Format: in vivo, Balb C nu/nu mice
Conditions: 10.0 mg/kg i.p. bi-weekly; s.c. PC-3 xenograft; versus control animals
Procedure: Male Balb C nu/nu mice were inoculated with (1×10^6) PC-3 cells through the subcutaneous (s.c.) route. […] Tumors were measured twice weekly, and tumor volume was determined as described in Materials and Methods.
Six-week-old male Balb C nu/nu mice were obtained from Charles River. Before inoculation, PC-3 cells growing in serum-containing medium were washed with phosphate buffered saline (PBS), harvested by trypsinization, and pelleted at 1200 rpm for 7 minutes. Cells (1.0×10^6) were resuspended in 200 μl of PBS with 20% Matrigel. Animals were anesthetized by intraperitoneal (i.p.) injection of Avertin and 1.0×10^6 cells were inoculated subcutaneously (s.c.) using a 26-gauge needle into the right flank of anesthetized mice. […] The animals were monitored twice a week for 7 weeks for tumor development and growth. Tumor volume was determined according to the formula: tumor volume=shorter diameter^2×longer diameter/2. […] Results were analyzed as the mean±SE, and comparisons of the experimental data were analyzed by unpaired, two-tailed, equal variance, t-test.
In this model, one million PC3 cells were inoculated in the right flank of male Balb C nu/nu mice through subcutaneous route.

B1: 13F6: non-inhibitory monoclonal anti-uPAR antibody raised against GFDuPAR-hFc; IgG1 κ (antibody, V domains shown)
VH: ELVKPGASVELSCKASGYTFTSYWMNWVKQRPGRGLEWIGRIAPNSGGTQYSGKFKTKATLTVDKSSSTAYMQLSSLTSEDSAVYYCARGDYFGHFDYWGQGTTLTVS
VL: SLSASLGGKVTITCKASQDINNYIAWYQHKPGKGPRLLIHYTSILQPGIPSRFSGSGSGRDYSFSISNLEPEDIATYYCLQCDNLLTFGAGTKLELK
  effect on tumor volume: A similar inhibition was not observed
